Data: PMC4388643

Columns and labels:
zymography = details: glycan lost; control: nLcc4 (untreated)
[1] = zymography of culture media; details: glycan lost; control: rLcc4-WT (P. pastoris)
[2] = activity versus pH and temperature; details: glycan lost; control: nLcc4 (untreated)

Protein	enzymatic_activity [1]	other results
Lcc4 laccase (nLcc4): Endo H, 1 h to overnight (protein) parent chain: MKALSFLTPIVTLALVAGAFASVGPVANLKIGNAAVSPDGYTRDAVVVNGATPGPLIVGNKGDNFRLNVIDELTNHTMLKSTSIHWHGFFQHGTNWADGGAFVNQCPISSGHSFSYNFQAKDQAGTFWYHSHLSTQYCDGLRGPFVVYDPKDPHKKLYDVDNESTVITLEDWYHTAARLGPRFPLGSDSTLINGLGRSATTATGDLAVIKVTRGKRYRFRLVSLSCDPFYTFSIDGHNMTIIEADAVNTKPHTVDSLEIFAGQRYSFILNANQPVDNYWVRANPNFGNVGFTNGINSAILRYDGAAVAEPATAIPPASVTPLLETDLHPLVSTPVPGSPVAGGVDKALNFVFNFDGTNFFINDATFTPPSVPVLLQILSGAQAAQDLLPSGSVIPLPALSTIELSFPATANAPGVPHPFHLHGHTFAVVRSAGSTAYNYEDPVWRDVVSTGTPAAGDNVTIRFVTDNPGPWFLHCHIDFHLEAGFAVVFAEDLPGTPAANPVPQSWSDLCPIYDALAEDDQ	–	enzymatic_activity (zymography): no change
Lcc4 laccase (nLcc4): N238D (protein) parent chain: MKALSFLTPIVTLALVAGAFASVGPVANLKIGNAAVSPDGYTRDAVVVNGATPGPLIVGNKGDNFRLNVIDELTNHTMLKSTSIHWHGFFQHGTNWADGGAFVNQCPISSGHSFSYNFQAKDQAGTFWYHSHLSTQYCDGLRGPFVVYDPKDPHKKLYDVDNESTVITLEDWYHTAARLGPRFPLGSDSTLINGLGRSATTATGDLAVIKVTRGKRYRFRLVSLSCDPFYTFSIDGHNMTIIEADAVNTKPHTVDSLEIFAGQRYSFILNANQPVDNYWVRANPNFGNVGFTNGINSAILRYDGAAVAEPATAIPPASVTPLLETDLHPLVSTPVPGSPVAGGVDKALNFVFNFDGTNFFINDATFTPPSVPVLLQILSGAQAAQDLLPSGSVIPLPALSTIELSFPATANAPGVPHPFHLHGHTFAVVRSAGSTAYNYEDPVWRDVVSTGTPAAGDNVTIRFVTDNPGPWFLHCHIDFHLEAGFAVVFAEDLPGTPAANPVPQSWSDLCPIYDALAEDDQ	abolishes	–
Lcc4 laccase (nLcc4): N458D (protein) parent chain: MKALSFLTPIVTLALVAGAFASVGPVANLKIGNAAVSPDGYTRDAVVVNGATPGPLIVGNKGDNFRLNVIDELTNHTMLKSTSIHWHGFFQHGTNWADGGAFVNQCPISSGHSFSYNFQAKDQAGTFWYHSHLSTQYCDGLRGPFVVYDPKDPHKKLYDVDNESTVITLEDWYHTAARLGPRFPLGSDSTLINGLGRSATTATGDLAVIKVTRGKRYRFRLVSLSCDPFYTFSIDGHNMTIIEADAVNTKPHTVDSLEIFAGQRYSFILNANQPVDNYWVRANPNFGNVGFTNGINSAILRYDGAAVAEPATAIPPASVTPLLETDLHPLVSTPVPGSPVAGGVDKALNFVFNFDGTNFFINDATFTPPSVPVLLQILSGAQAAQDLLPSGSVIPLPALSTIELSFPATANAPGVPHPFHLHGHTFAVVRSAGSTAYNYEDPVWRDVVSTGTPAAGDNVTIRFVTDNPGPWFLHCHIDFHLEAGFAVVFAEDLPGTPAANPVPQSWSDLCPIYDALAEDDQ	abolishes	–
Lcc4 laccase (nLcc4): Endo H (dLcc4) (protein) parent chain: MKALSFLTPIVTLALVAGAFASVGPVANLKIGNAAVSPDGYTRDAVVVNGATPGPLIVGNKGDNFRLNVIDELTNHTMLKSTSIHWHGFFQHGTNWADGGAFVNQCPISSGHSFSYNFQAKDQAGTFWYHSHLSTQYCDGLRGPFVVYDPKDPHKKLYDVDNESTVITLEDWYHTAARLGPRFPLGSDSTLINGLGRSATTATGDLAVIKVTRGKRYRFRLVSLSCDPFYTFSIDGHNMTIIEADAVNTKPHTVDSLEIFAGQRYSFILNANQPVDNYWVRANPNFGNVGFTNGINSAILRYDGAAVAEPATAIPPASVTPLLETDLHPLVSTPVPGSPVAGGVDKALNFVFNFDGTNFFINDATFTPPSVPVLLQILSGAQAAQDLLPSGSVIPLPALSTIELSFPATANAPGVPHPFHLHGHTFAVVRSAGSTAYNYEDPVWRDVVSTGTPAAGDNVTIRFVTDNPGPWFLHCHIDFHLEAGFAVVFAEDLPGTPAANPVPQSWSDLCPIYDALAEDDQ	–	other: optimal pH and temperature [2]: no change
Lcc4 laccase (nLcc4): N75D (protein) parent chain: MKALSFLTPIVTLALVAGAFASVGPVANLKIGNAAVSPDGYTRDAVVVNGATPGPLIVGNKGDNFRLNVIDELTNHTMLKSTSIHWHGFFQHGTNWADGGAFVNQCPISSGHSFSYNFQAKDQAGTFWYHSHLSTQYCDGLRGPFVVYDPKDPHKKLYDVDNESTVITLEDWYHTAARLGPRFPLGSDSTLINGLGRSATTATGDLAVIKVTRGKRYRFRLVSLSCDPFYTFSIDGHNMTIIEADAVNTKPHTVDSLEIFAGQRYSFILNANQPVDNYWVRANPNFGNVGFTNGINSAILRYDGAAVAEPATAIPPASVTPLLETDLHPLVSTPVPGSPVAGGVDKALNFVFNFDGTNFFINDATFTPPSVPVLLQILSGAQAAQDLLPSGSVIPLPALSTIELSFPATANAPGVPHPFHLHGHTFAVVRSAGSTAYNYEDPVWRDVVSTGTPAAGDNVTIRFVTDNPGPWFLHCHIDFHLEAGFAVVFAEDLPGTPAANPVPQSWSDLCPIYDALAEDDQ	decreases, the N75D mutant showed activity at around 60 s	–
